What was measured:
[1] = molecular target: E. coli bo3 oxidase (E. coli); assay: mass photometry
[2] = molecular target: E. coli bo3 oxidase (E. coli); assay: SEC-MALS
mass photometry = molecular target: the molecule itself; assay: mass photometry
[3] = molecular target: T1, Streptomyces lividans potassium channel KcsA (Streptomyces lividans), P0A334; assay: mass photometry; conditions: remark: other sources report otherwise
T1 chain: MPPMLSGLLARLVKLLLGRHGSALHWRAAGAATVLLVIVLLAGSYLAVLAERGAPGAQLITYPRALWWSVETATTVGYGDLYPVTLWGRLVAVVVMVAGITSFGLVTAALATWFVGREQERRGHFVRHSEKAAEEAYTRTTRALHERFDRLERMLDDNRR

[4] = molecular target: T1, Streptomyces lividans potassium channel …; assay: mass photometry; conditions: remark: other sources report otherwise

## E. coli bo3 oxidase (complex)
[1]
  relative abundance of dimers: 20%
  stoichiometry N: 2
[2]
  relative abundance of dimers: 28%
  relative abundance of monomers: 72%
  stoichiometry N: 2

B1: E. coli outer membrane protein F (natural protein)
chain: AEIYNKDGNKVDLYGKAVGLHYFSKGNGENSYGGNGDMTYARLGFKGETQINSDLTGYGQWEYNFQGNNSEGADAQTGNKTRLAFAGLKYADVGSFDYGRNYGVVYDALGYTDMLPEFGGDTAYSDDFFVGRVGGVATYRNSNFFGLVDGLNFAVQYLGKNERDTARRSNGDGVGGSISYEYEGFGIVGAYGAADRTNLQEAQPLGNGKKAEQWATGLKYDANNIYLAANYGETRNATPITNKFTNTSGFANKTQDVLLVAQYQFDFGLRPSIAYTKSKAKDVEGIGDVDLVNYFEVGATYYFNKNMSTYVDYIINQIDSDNKLGVGSDDTVAVGIVYQF
Mass photometry
  stoichiometry N: 3

B2: Streptomyces lividans potassium channel KcsA, P0A334 1-160 (natural protein)
chain: T1 chain
[3]
  stoichiometry N: 4
[4]
  stoichiometry N: 4

From paper PMC7815066 (Chem, 2021)
